± gives the uncertainty stated by the source.
experiment: amyloid nucleation score (Sup35N fusion, yeast selection) (log enrichment); library NNK3; higher = more nucleation; inactive = no reads after selection
Method in brief: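 Libraries of peptides of 20 random codons fused to Sup35N were expressed in psi-negative yeast and induced 24 hours with 100 μM copper sulfate. Selection was 7 days at 30°C on medium lacking adenine and uracil, and plasmid inserts were Illumina-sequenced before and after selection. Nucleation score is the DiMSum log enrichment of output over input reads, centred on the mode score of non-aggregating sequences, and sequences with under 100 input reads were left out.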

| Substance | amyloid nucleation score |
| --- | --- |
| MYFEECGRCFNRSFNYGVNQ | inactive |
| MYLGGKALIRPFPVYATAAW | inactive |
| MYLVG | inactive |
| MYSNVDQFNI | -0.257 ± 0.47 |
| MYVLLHTSQVL | inactive |
| MYVPIPVYFQF | inactive |
| MYVSV | inactive |
| MYVWLRCKLIGNSFLRVKCS | inactive |
| MYYRTRQELTSCPRNQNIL | -0.069 ± 0.85 |
| NAALIVCLITFYVLGIFLAG | inactive |
| NAHSHGYGSVPGR | inactive |
| NAQGVSKWEDTRSNLNRLVV | inactive |
| NCFMSLASSNTR | inactive |
| NCKLFFSFGM | 1.49 ± 0.094 |
| NCLRLYQGSGKMFIIV | inactive |
| NCLSPTCRSVL | 2.07 ± 0.097 |
| NCMFPGYLYNVDITLMDV | inactive |
| NCNVPRSHGGGFLTYTLMRE | inactive |
| NCRSFCC | 0.905 ± 0.094 |
| NCVRFFYASDLSNYTRA | inactive |
| NCYDSW | inactive |
| NDARAVGCTLRYKGLAIYSY | inactive |
| NDEMVY | inactive |
| NDGFMDVVNTSGSNLCMARN | inactive |

| Substance | amyloid nucleation score |
| --- | --- |
| NDHVRAFTDIFMCTMAIMND | inactive |
| NDKLWQWMGNISVRCFFINV | inactive |
| NECYYLGRNWPYYGKSDMLL | 0.379 ± 0.27 |
| NELVLKYRSTVVLVKLW | inactive |
| NETPVSDAESGVLDFTSHEL | inactive |
| NEVDDWFSD | inactive |
| NFAGMFVGLMPWHVCDTTCR | inactive |
| NFCLMLDVWINTFRDIIYWG | inactive |
| NFLFMCSPYYLWIFDPGCYL | 2.8 ± 0.074 |
| NFLGAFRIPRLLRSLVALYL | inactive |
| NFLVRTPGRNERG | inactive |
| NFMCFLVFHDLYEGQGYELR | 2.3 ± 0.089 |
| NFNYNQQLSVLLLVFGWTWR | 1.83 ± 0.075 |
| NFSCCLSCRQHMLAIFM | 0.988 ± 0.13 |
| NFWVIPQ | inactive |
| NFYYSSAFLSVLFPFSACFP | 2.22 ± 0.084 |
| NGGIERLSWVRVWFRHTFQS | inactive |
| NGKWKGWSS | inactive |
| NGMGKRGQRSEESISQRSTG | inactive |
| NGSSFCAKCVNVW | -0.418 ± 0.98 |
| NGVILYETSAWVTNVYSRFK | 1.2 ± 0.18 |
| NHGATLFECSYCNCSLAFR | 2.83 ± 0.081 |
| NHMLCCTCDFHYCVRGWKSF | 0.64 ± 0.33 |
| NIALFEILSSGIIVSNSNER | inactive |

| Substance | amyloid nucleation score |
| --- | --- |
| NIGNHYCRYNGWDMLNRGEL | inactive |
| NIGYSLWRHYTNSRG | inactive |
| NIISR | -0.184 ± 0.81 |
| NIPVSYYVVNGLIAEMLFIS | 0.409 ± 0.27 |
| NIVLFGKRVNFFYLTNDVVK | 1.97 ± 0.067 |
| NKAIILHVM | inactive |
| NKGLNL | inactive |
| NKGMPGPHGANSRYTGVDVG | inactive |
| NKNHYFRVF | inactive |
| NKNQIDQASSWFPR | inactive |
| NLADAVEENGGYFHFTFPKF | inactive |
| NLAFP | inactive |
| NLCIWPVTDAHLSLMHYLTP | inactive |
| NLFDGTN | inactive |
| NLHAEWMDGSTGRKIAWNNG | inactive |
| NLKRTQLFLHLFRMGCFHT | inactive |
| NLLDYTVIVNSLSFVDSKSS | inactive |
| NLLNSFIFSRLRRVEGGMFG | inactive |
| NLLVLTDSVYIPLSHPYPNR | 0.493 ± 0.22 |
| NLNGLMRLQIAVLFQ | 0.577 ± 0.21 |
| NLQLESFYWFGPRGVRKHLE | inactive |
| NLRFVTREWCKTYQLI | inactive |
| NLRSLFKPWPVVPAYMRFME | inactive |
| NLSHDCPPGPAKARYYRNVK | inactive |

| Substance | amyloid nucleation score |
| --- | --- |
| NLSVIMLVVCMLTINNIYMS | 1.29 ± 0.11 |
| NLVTVLIISRWGAGLR | 1.17 ± 0.17 |
| NLVWICFFNGRNYLSMRDRA | 1.34 ± 0.15 |
| NMLVCITSDGLYFYCCGANS | 1.5 ± 0.11 |
| NMPYSCKRLWRDKCQMWEYR | inactive |
| NMRTCSIGSKPIVKFTYMCG | 1.31 ± 0.15 |
| NMRYKHAWNLEVVVLKVHVY | inactive |
| NMTVGHILFLMMTCAMYVNN | inactive |
| NMVSFWN | inactive |
| NMYGYADYYRAFRDSN | inactive |
| NNCSRICM | inactive |
| NNEYQRKNLWFKGKVWLCMY | inactive |
| NNFKGFFRRFTVGCSRTPPT | inactive |
| NNLFWHNAVCLGALEEYLSK | inactive |
| NNLNQRYYTRHLQSGNLFCS | inactive |
| NNSGLSFFSNLGWVLHGDLV | inactive |
| NNVGPAFHDAC | inactive |
| NPIYDSQLPATSCMQAFNAF | inactive |
| NQCIAYYGISRLWQM | inactive |
| NQMEN | 0.843 ± 0.36 |
| NQRSAILVGPSRNLQY | inactive |
| NQSCFMSAGNGSF | inactive |
| NQVISFWYSIQYCYEYSRNS | inactive |
| NRACKLCSFKSGQRSNTMGF | inactive |

| Substance | amyloid nucleation score |
| --- | --- |
| NRDVLQKPLIIAICQSFCSQ | 2.32 ± 0.083 |
| NRFMVPETVKENIACFQTIQ | inactive |
| NRIGSKTCKFFMALGM | inactive |
| NRKSRSYTLFLV | inactive |
| NRLCFISAMCNVTYWVICNH | inactive |
| NRLNIFIYSFNVAVVSI | 2.31 ± 0.082 |
| NRLYVKAELCSDAFRIVVAR | inactive |
| NRQFSDSLYRRACAMKEDCL | 0.643 ± 0.2 |
| NRRGSSVVRI | inactive |
| NRRNLSLFECLSSTGVSRVN | inactive |
| NRSCRDFRYY | inactive |
| NSCYRRHMCWCFSKAEFLTL | inactive |
| NSFDFYAAGPY | inactive |
| NSFDGTYVYTYLPSELSTFP | inactive |
| NSGTKQTLGYSSFRD | inactive |
| NSIQCKRTVCILSGSTVMRE | inactive |
| NSLFCTWSSPWVYNPTYGWE | 1.26 ± 0.17 |
| NSLLGHF | inactive |
| NSLMYFRGKFLFSIYNCYVH | inactive |
| NSLSIVM | -0.523 ± 1.1 |
| NSNSI | inactive |
| NSQGQNYILTFYR | 1.82 ± 0.088 |
| NSQKVIYKPFEAIYVTGTLT | inactive |

Source: the supplement of paper PMC12042874
